Data on 3 molecules can be found in article PMC4137059 (The Journal of Cell Biology, 2014).

No end group written: not given here.

First the molecules themselves.
B1: Mtw1 complex (recombinant four-protein complex with a deletion of the N-terminal 172 residues of Dsn1) (complex)
chain 1: MSAPTMRSTSILTEHLGYPPISLVDDIINAVNEIMYKCTAAMEKYLLSKSKIGEEDYGEEIKSGVAKLESLLENSVDKNFDKLELYVLRNVLRIPEEYLDANVFRLENQKDLVIVDENELKKSEEKLREKVNDVELAFKKNEMLLKRVTKVKRLLFTIRGFKQKLNELLKCKDDVQLQKILESLKPIDDTMTLLTDSLRKLYVDSESTSSTEEVEALLQRLKTNGKQNNKDFRTRYIDIRTNNVLRKLGLLGDKEDEKQSAKPDARTQAGDIVSIDIEEPQLDLLDDVL
chain 2: MVNSHGIRYIRLKQVFNRALDQSISKLQSWDKVSSCFPQYVNSKQGAINVANCQRQLTEFWTELCQREFKEIMEERNVEQKLNELDELILEAKERYTDRDQDEVNKGPAIDELSSKELVECHLYSQRMHAIHEIDERLAKVNEMNDQLAQELKDLETQVEVEKNEIGKMYDEYLGSHTDQPANVLLVQSLNDMVLELKENY
chain 3: MSQGQSKKLDVTVEQLRSIYHQFHDILEEKTDLHLPKKEYDDDAVRREVQIQLQEFLLSAMTMASKSLEVVNADTVGKTVKQLIMESQEKYMEPFDLDLNEQVRKMYQEWEDETVKVAQLRQTGPAKINEVYNNSKDEYLAQLDGRIGVLQARMMQQQSADHDDSTDDADDHINWEHIKQDYVASLNELYQTQQDLPKVRYNVEKVKRLMDFLEED
chain 4: HSIMPNSSLQPFYSQPTAAGGPDMTTPQNISSSQQLLPAPQLFPYGSFHQQQLQQPHYIQRTRERKKSIGSQRGRRLSMLASQANGGSTIISPHKDIPEEDFYTVVGNASFGKNLQIRQLFNWCLMRSLHKLELKAKNQEEEGELEHLTKKSKLESTKAETDYVDPKRLAMVIIKEFVDDLKKDHIAIDWEDEEKYEDEDEEKILDNTENYDDTELRQLFQENDDDDDDDDEVDYSEIQRSRRKFSERRKALPKEPKKLLPNSKNVENTKNLSILTSKVNAIKNEVKEWAVTLDTSRPDLEWQELTSFSSQPLEPLSDTEEPDLAIADVETKLETKVDELRYQSHILNSHSLALNEITNSKVNKLNIETMRKISSETDDDHSQVINPQQLLKGLSLSFSKKLDL
B2: Mtw1-Nnf1 heterodimer (complex)
chain 1: B1 chain 1
chain 2: B1 chain 2
B3: GST-Ame1^1-30 (domain or fragment)
chain: {GST}-MDRDTKLAFRLRGSHSRRTDDIDDDVIVFK

One assay concerns the target Ndc80 complex (budding yeast, UniProt P40460;P33895;Q04477;P40014). Description: SEC.
The target of the next assay is Ame1–Okp1 complex (budding yeast, UniProt P38313;P53298). The experiment in a line: ITC.
Ame1–Okp1 complex, sequence (P53298 whole entry, one chain of several): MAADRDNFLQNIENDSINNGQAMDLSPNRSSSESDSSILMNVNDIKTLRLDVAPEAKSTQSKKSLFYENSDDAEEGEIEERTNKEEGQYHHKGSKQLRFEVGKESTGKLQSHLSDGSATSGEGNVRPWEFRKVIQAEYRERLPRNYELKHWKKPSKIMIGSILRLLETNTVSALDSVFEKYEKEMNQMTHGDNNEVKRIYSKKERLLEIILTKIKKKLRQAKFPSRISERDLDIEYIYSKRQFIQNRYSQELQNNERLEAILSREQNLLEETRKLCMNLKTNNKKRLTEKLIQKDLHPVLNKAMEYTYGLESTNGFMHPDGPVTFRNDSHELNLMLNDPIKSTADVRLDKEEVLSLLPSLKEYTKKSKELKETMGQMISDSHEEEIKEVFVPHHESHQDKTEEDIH
The target of the assay “Mtw1-Nnf1 heterodimer” is B2. The experiment in a line: ITC. In general terms: In ITC the heat of successive injections is recorded.

Ndc80 complex, sequence (P40460 whole entry, chain 1 of 4): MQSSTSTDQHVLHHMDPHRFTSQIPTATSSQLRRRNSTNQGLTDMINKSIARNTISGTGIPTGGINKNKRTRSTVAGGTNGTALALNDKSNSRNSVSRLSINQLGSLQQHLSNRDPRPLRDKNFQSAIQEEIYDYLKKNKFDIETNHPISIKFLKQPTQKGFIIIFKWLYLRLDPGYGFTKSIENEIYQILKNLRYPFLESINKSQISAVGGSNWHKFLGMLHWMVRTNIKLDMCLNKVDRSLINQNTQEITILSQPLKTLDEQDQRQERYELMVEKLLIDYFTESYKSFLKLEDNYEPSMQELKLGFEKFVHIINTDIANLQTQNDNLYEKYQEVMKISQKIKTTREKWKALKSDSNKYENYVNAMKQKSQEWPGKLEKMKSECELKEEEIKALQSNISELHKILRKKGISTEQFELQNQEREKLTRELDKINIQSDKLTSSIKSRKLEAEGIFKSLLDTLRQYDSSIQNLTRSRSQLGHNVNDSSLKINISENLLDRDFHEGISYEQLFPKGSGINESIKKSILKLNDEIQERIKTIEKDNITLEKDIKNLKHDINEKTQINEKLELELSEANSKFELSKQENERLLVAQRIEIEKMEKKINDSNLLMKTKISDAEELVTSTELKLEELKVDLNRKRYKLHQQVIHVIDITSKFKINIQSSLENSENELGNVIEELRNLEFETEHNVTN
Ndc80 complex, sequence (P33895 whole entry, chain 2 of 4): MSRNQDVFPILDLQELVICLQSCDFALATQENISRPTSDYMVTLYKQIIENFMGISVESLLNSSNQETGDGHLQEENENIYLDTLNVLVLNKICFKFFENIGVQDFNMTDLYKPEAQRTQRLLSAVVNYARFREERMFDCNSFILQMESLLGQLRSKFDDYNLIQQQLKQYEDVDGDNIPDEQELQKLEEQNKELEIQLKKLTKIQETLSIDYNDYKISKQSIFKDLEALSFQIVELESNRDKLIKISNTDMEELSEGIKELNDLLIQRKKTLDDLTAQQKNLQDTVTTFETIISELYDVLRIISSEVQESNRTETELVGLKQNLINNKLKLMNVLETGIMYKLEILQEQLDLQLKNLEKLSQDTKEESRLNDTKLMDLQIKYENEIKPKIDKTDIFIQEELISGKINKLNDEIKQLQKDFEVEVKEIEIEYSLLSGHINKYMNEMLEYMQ
Ndc80 complex, sequence (Q04477 whole entry, chain 3 of 4): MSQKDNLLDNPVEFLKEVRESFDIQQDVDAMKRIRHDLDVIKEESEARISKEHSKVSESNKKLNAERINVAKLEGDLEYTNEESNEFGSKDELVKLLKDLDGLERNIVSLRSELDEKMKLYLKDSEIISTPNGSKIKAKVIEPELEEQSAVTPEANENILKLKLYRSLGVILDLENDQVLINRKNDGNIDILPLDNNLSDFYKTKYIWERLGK
Ndc80 complex, sequence (P40014 whole entry, chain 4 of 4): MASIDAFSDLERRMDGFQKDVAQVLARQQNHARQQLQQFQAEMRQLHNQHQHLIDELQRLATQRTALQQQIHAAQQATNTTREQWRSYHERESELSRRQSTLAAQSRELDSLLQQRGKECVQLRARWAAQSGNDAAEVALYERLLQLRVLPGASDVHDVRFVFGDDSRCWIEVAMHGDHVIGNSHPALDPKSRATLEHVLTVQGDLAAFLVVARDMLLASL

On to B1, for which, in the assay with Ndc80 complex, the binding result is reported as “binds”. Turning to B2, in the assay with Ame1–Okp1 complex, the affinity, expressed as Kd, was 1.6 µM and the “stoichiometry N” value stood at 1. With B3, the Kd with Mtw1-Nnf1 heterodimer is 1.5 µM.

Broadly, the Kd is the free concentration of one partner at which half of the binding sites on the other are occupied at equilibrium, for simple one-to-one binding. Low readings indicate tighter binding, high ones weaker binding. What is called stoichiometry N is the number of molecules, sites or subunits per partner or assembly.
